Patent US20210238260

Molecular target: Factor X, P00742
Sequence (P00742 whole entry, looked up): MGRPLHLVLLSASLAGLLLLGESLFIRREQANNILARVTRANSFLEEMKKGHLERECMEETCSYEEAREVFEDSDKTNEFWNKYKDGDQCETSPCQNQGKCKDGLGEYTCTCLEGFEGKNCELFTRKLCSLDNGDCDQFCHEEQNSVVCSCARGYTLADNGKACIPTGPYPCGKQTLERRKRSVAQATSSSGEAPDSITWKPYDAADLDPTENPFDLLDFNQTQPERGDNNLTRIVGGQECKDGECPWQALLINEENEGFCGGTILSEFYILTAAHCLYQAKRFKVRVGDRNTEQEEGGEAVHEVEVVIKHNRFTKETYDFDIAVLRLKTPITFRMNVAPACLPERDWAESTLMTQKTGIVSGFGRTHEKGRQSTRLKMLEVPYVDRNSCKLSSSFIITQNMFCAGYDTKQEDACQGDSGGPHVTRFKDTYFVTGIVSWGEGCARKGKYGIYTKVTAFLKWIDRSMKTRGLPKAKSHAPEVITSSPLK

Protein | % of WT kcat/KM | KM (FX activation by FIXa in Xase complex with FVIIIa, PC/PS vesicles, Ca2+) | kcat/KM
FIXa Y155F/R318Y/R338E/T343R/R403E/E410N (protein) chain 1: YNSGKLEEFVQGNLERECMEEKCSFEEAREVFENTERTTEFWKQYVDGDQCESNPCLNGGSCKDDINSYECWCPFGFEGKNCELDVTCNIKNGRCEQFCKNSADNKVVCSCTEGYRLAENQKSCEPAVPFPCGRVSVSQTSKLTR chain 2: VVGGEDAKPGQFPWQVVLNGKVDAFCGGSIVNEKWIVTAAHCVETGVKITVVAGEHNIEETEHTEQKRNVIRIIPHHNYNAAINKYNHDIALLELDEPLVLNSYVTPICIADKEYTNIFLKFGSGYVSGWGRVFHKGYSALVLQYLRVPLVDRATCLESTKFRIYNNMFCAGFHEGGRDSCQGDSGGPHVTEVEGTSFLTGIISWGEECAMKGKYGIYTKVSEYVNWIKNKTKLT | 640% | 0.0272 µM | 3e+08 M⁻¹ s⁻¹
FIXa Y155F/K247N/N249S/R318Y/R338E/R403E (protein) chain 1: YNSGKLEEFVQGNLERECMEEKCSFEEAREVFENTERTTEFWKQYVDGDQCESNPCLNGGSCKDDINSYECWCPFGFEGKNCELDVTCNIKNGRCEQFCKNSADNKVVCSCTEGYRLAENQKSCEPAVPFPCGRVSVSQTSKLTR chain 2: VVGGEDAKPGQFPWQVVLNGKVDAFCGGSIVNEKWIVTAAHCVETGVKITVVAGEHNIEETEHTEQNRSVIRIIPHHNYNAAINKYNHDIALLELDEPLVLNSYVTPICIADKEYTNIFLKFGSGYVSGWGRVFHKGYSALVLQYLRVPLVDRATCLESTKFTIYNNMFCAGFHEGGRDSCQGDSGGPHVTEVEGTSFLTGIISWGEECAMKGKYGIYTKVSEYVNWIKEKTKLT | – | 0.0673 µM | –
FIXa R318Y/R338E/T343R/R403E (protein) chain 1: YNSGKLEEFVQGNLERECMEEKCSFEEAREVFENTERTTEFWKQYVDGDQCESNPCLNGGSCKDDINSYECWCPFGFEGKNCELDVTCNIKNGRCEQFCKNSADNKVVCSCTEGYRLAENQKSCEPAVPFPCGRVSVSQTSKLTR chain 2: VVGGEDAKPGQFPWQVVLNGKVDAFCGGSIVNEKWIVTAAHCVETGVKITVVAGEHNIEETEHTEQKRNVIRIIPHHNYNAAINKYNHDIALLELDEPLVLNSYVTPICIADKEYTNIFLKFGSGYVSGWGRVFHKGYSALVLQYLRVPLVDRATCLESTKFRIYNNMFCAGFHEGGRDSCQGDSGGPHVTEVEGTSFLTGIISWGEECAMKGKYGIYTKVSEYVNWIKEKTKLT | – | 0.0443 µM | –
FIXa R318Y/R338E/Y345A/R403E/E410N (protein) chain 1: YNSGKLEEFVQGNLERECMEEKCSFEEAREVFENTERTTEFWKQYVDGDQCESNPCLNGGSCKDDINSYECWCPFGFEGKNCELDVTCNIKNGRCEQFCKNSADNKVVCSCTEGYRLAENQKSCEPAVPFPCGRVSVSQTSKLTR chain 2: VVGGEDAKPGQFPWQVVLNGKVDAFCGGSIVNEKWIVTAAHCVETGVKITVVAGEHNIEETEHTEQKRNVIRIIPHHNYNAAINKYNHDIALLELDEPLVLNSYVTPICIADKEYTNIFLKFGSGYVSGWGRVFHKGYSALVLQYLRVPLVDRATCLESTKFTIANNMFCAGFHEGGRDSCQGDSGGPHVTEVEGTSFLTGIISWGEECAMKGKYGIYTKVSEYVNWIKNKTKLT | 180% | 0.0188 µM | 8.3e+07 M⁻¹ s⁻¹
FIXa K247N/N249S/R338E/R403E/E410N (protein) chain 1: YNSGKLEEFVQGNLERECMEEKCSFEEAREVFENTERTTEFWKQYVDGDQCESNPCLNGGSCKDDINSYECWCPFGFEGKNCELDVTCNIKNGRCEQFCKNSADNKVVCSCTEGYRLAENQKSCEPAVPFPCGRVSVSQTSKLTR chain 2: VVGGEDAKPGQFPWQVVLNGKVDAFCGGSIVNEKWIVTAAHCVETGVKITVVAGEHNIEETEHTEQNRSVIRIIPHHNYNAAINKYNHDIALLELDEPLVLNSYVTPICIADKEYTNIFLKFGSGYVSGWGRVFHKGRSALVLQYLRVPLVDRATCLESTKFTIYNNMFCAGFHEGGRDSCQGDSGGPHVTEVEGTSFLTGIISWGEECAMKGKYGIYTKVSEYVNWIKNKTKLT | – | 0.025 µM | –
FIXa R318Y/R338E/N346Y/R403E/E410N (protein) chain 1: YNSGKLEEFVQGNLERECMEEKCSFEEAREVFENTERTTEFWKQYVDGDQCESNPCLNGGSCKDDINSYECWCPFGFEGKNCELDVTCNIKNGRCEQFCKNSADNKVVCSCTEGYRLAENQKSCEPAVPFPCGRVSVSQTSKLTR chain 2: VVGGEDAKPGQFPWQVVLNGKVDAFCGGSIVNEKWIVTAAHCVETGVKITVVAGEHNIEETEHTEQKRNVIRIIPHHNYNAAINKYNHDIALLELDEPLVLNSYVTPICIADKEYTNIFLKFGSGYVSGWGRVFHKGYSALVLQYLRVPLVDRATCLESTKFTIYYNMFCAGFHEGGRDSCQGDSGGPHVTEVEGTSFLTGIISWGEECAMKGKYGIYTKVSEYVNWIKNKTKLT | 270% | 0.0281 µM | 1.2e+08 M⁻¹ s⁻¹
FIXa D104N/K106S/R318Y/R338E/T343R/R403E/E410N (protein) chain 1: YNSGKLEEFVQGNLERECMEEKCSFEEAREVFENTERTTEFWKQYVDGDQCESNPCLNGGSCKDDINSYECWCPFGFEGKNCELDVTCNIKNGRCEQFCKNSANNSVVCSCTEGYRLAENQKSCEPAVPFPCGRVSVSQTSKLTR chain 2: VVGGEDAKPGQFPWQVVLNGKVDAFCGGSIVNEKWIVTAAHCVETGVKITVVAGEHNIEETEHTEQKRNVIRIIPHHNYNAAINKYNHDIALLELDEPLVLNSYVTPICIADKEYTNIFLKFGSGYVSGWGRVFHKGYSALVLQYLRVPLVDRATCLESTKFRIYNNMFCAGFHEGGRDSCQGDSGGPHVTEVEGTSFLTGIISWGEECAMKGKYGIYTKVSEYVNWIKNKTKLT | 487% | 0.0266 µM | 2.2e+08 M⁻¹ s⁻¹
FIXa Y155F/K247N/N249S/R318Y/R403E/E410N (protein) chain 1: YNSGKLEEFVQGNLERECMEEKCSFEEAREVFENTERTTEFWKQYVDGDQCESNPCLNGGSCKDDINSYECWCPFGFEGKNCELDVTCNIKNGRCEQFCKNSADNKVVCSCTEGYRLAENQKSCEPAVPFPCGRVSVSQTSKLTR chain 2: VVGGEDAKPGQFPWQVVLNGKVDAFCGGSIVNEKWIVTAAHCVETGVKITVVAGEHNIEETEHTEQNRSVIRIIPHHNYNAAINKYNHDIALLELDEPLVLNSYVTPICIADKEYTNIFLKFGSGYVSGWGRVFHKGYSALVLQYLRVPLVDRATCLRSTKFTIYNNMFCAGFHEGGRDSCQGDSGGPHVTEVEGTSFLTGIISWGEECAMKGKYGIYTKVSEYVNWIKNKTKLT | – | 0.125 µM | –
FIXa Y155F/K247N/N249S/R338E/R403E/E410N (protein) chain 1: YNSGKLEEFVQGNLERECMEEKCSFEEAREVFENTERTTEFWKQYVDGDQCESNPCLNGGSCKDDINSYECWCPFGFEGKNCELDVTCNIKNGRCEQFCKNSADNKVVCSCTEGYRLAENQKSCEPAVPFPCGRVSVSQTSKLTR chain 2: VVGGEDAKPGQFPWQVVLNGKVDAFCGGSIVNEKWIVTAAHCVETGVKITVVAGEHNIEETEHTEQNRSVIRIIPHHNYNAAINKYNHDIALLELDEPLVLNSYVTPICIADKEYTNIFLKFGSGYVSGWGRVFHKGRSALVLQYLRVPLVDRATCLESTKFTIYNNMFCAGFHEGGRDSCQGDSGGPHVTEVEGTSFLTGIISWGEECAMKGKYGIYTKVSEYVNWIKNKTKLT | – | 0.0487 µM | –
FIXa K247N/N249S/R318Y/R338E/R403E (protein) chain 1: YNSGKLEEFVQGNLERECMEEKCSFEEAREVFENTERTTEFWKQYVDGDQCESNPCLNGGSCKDDINSYECWCPFGFEGKNCELDVTCNIKNGRCEQFCKNSADNKVVCSCTEGYRLAENQKSCEPAVPFPCGRVSVSQTSKLTR chain 2: VVGGEDAKPGQFPWQVVLNGKVDAFCGGSIVNEKWIVTAAHCVETGVKITVVAGEHNIEETEHTEQNRSVIRIIPHHNYNAAINKYNHDIALLELDEPLVLNSYVTPICIADKEYTNIFLKFGSGYVSGWGRVFHKGYSALVLQYLRVPLVDRATCLESTKFTIYNNMFCAGFHEGGRDSCQGDSGGPHVTEVEGTSFLTGIISWGEECAMKGKYGIYTKVSEYVNWIKEKTKLT | – | 0.0536 µM | –
FIXa K247N/N249S/R318Y/R403E/E410N (protein) chain 1: YNSGKLEEFVQGNLERECMEEKCSFEEAREVFENTERTTEFWKQYVDGDQCESNPCLNGGSCKDDINSYECWCPFGFEGKNCELDVTCNIKNGRCEQFCKNSADNKVVCSCTEGYRLAENQKSCEPAVPFPCGRVSVSQTSKLTR chain 2: VVGGEDAKPGQFPWQVVLNGKVDAFCGGSIVNEKWIVTAAHCVETGVKITVVAGEHNIEETEHTEQNRSVIRIIPHHNYNAAINKYNHDIALLELDEPLVLNSYVTPICIADKEYTNIFLKFGSGYVSGWGRVFHKGYSALVLQYLRVPLVDRATCLRSTKFTIYNNMFCAGFHEGGRDSCQGDSGGPHVTEVEGTSFLTGIISWGEECAMKGKYGIYTKVSEYVNWIKNKTKLT | – | 0.111 µM | –
FIXa R318Y/R338E/T343R/N346D/R403E/E410N (protein) chain 1: YNSGKLEEFVQGNLERECMEEKCSFEEAREVFENTERTTEFWKQYVDGDQCESNPCLNGGSCKDDINSYECWCPFGFEGKNCELDVTCNIKNGRCEQFCKNSADNKVVCSCTEGYRLAENQKSCEPAVPFPCGRVSVSQTSKLTR chain 2: VVGGEDAKPGQFPWQVVLNGKVDAFCGGSIVNEKWIVTAAHCVETGVKITVVAGEHNIEETEHTEQKRNVIRIIPHHNYNAAINKYNHDIALLELDEPLVLNSYVTPICIADKEYTNIFLKFGSGYVSGWGRVFHKGYSALVLQYLRVPLVDRATCLESTKFRIYDNMFCAGFHEGGRDSCQGDSGGPHVTEVEGTSFLTGIISWGEECAMKGKYGIYTKVSEYVNWIKNKTKLT | 177% | 0.067 µM | 8.2e+07 M⁻¹ s⁻¹
FIXa R318Y/R338E/T343R/N346Y/R403E/E410N (protein) chain 1: YNSGKLEEFVQGNLERECMEEKCSFEEAREVFENTERTTEFWKQYVDGDQCESNPCLNGGSCKDDINSYECWCPFGFEGKNCELDVTCNIKNGRCEQFCKNSADNKVVCSCTEGYRLAENQKSCEPAVPFPCGRVSVSQTSKLTR chain 2: VVGGEDAKPGQFPWQVVLNGKVDAFCGGSIVNEKWIVTAAHCVETGVKITVVAGEHNIEETEHTEQKRNVIRIIPHHNYNAAINKYNHDIALLELDEPLVLNSYVTPICIADKEYTNIFLKFGSGYVSGWGRVFHKGYSALVLQYLRVPLVDRATCLESTKFRIYYNMFCAGFHEGGRDSCQGDSGGPHVTEVEGTSFLTGIISWGEECAMKGKYGIYTKVSEYVNWIKNKTKLT | 663% | 0.0158 µM | 3.1e+08 M⁻¹ s⁻¹
